The values that follow come from patent US11369662B2 (The Medical College of Wisconsin, Inc., priority 2014, dated 2022).

Test [1] has as its target T1, CXCR4 (Homo sapiens, UniProt P61073).
T1 construct: purchased Millipore
The test is described as follows: CXCR4 degradation assay in HeLa cells. Type of test: cell-based. The conditions noted are these: 80 ng/ml, 3 h, compared to vehicle. The procedure:
CXCR4 degradation assay. HeLa cells grown on 6-cm dishes were washed once and incubated with DMEM containing 10% FBS and 50 μg/ml cyclohexamide for 15 min at 37° C. […] Cells were washed once and collected in 300 μl 2× sample buffer. Receptor levels were determined by SDS-PAGE followed by immunoblotting using an anti-CXCR4 antibody. Blots were stripped and reprobed for actin to assess loading. Receptor levels normalized to actin levels were determined by densitometric analysis.
CXCR4 degradation assay. HeLa cells grown on 6-cm dishes were washed once and incubated with DMEM containing 10% FBS and 50 μg/ml cyclohexamide for 15 min at 37° C. […] Cells were washed once and collected in 300 μl 2×sample buffer. Receptor levels were determined by SDS-PAGE followed by immunoblotting using an anti-CXCR4 antibody. Blots were stripped and reprobed for actin to assess loading. Receptor levels normalized to actin levels were determined by densitometric analysis.

Test [2] concerns the target T1, CXCR4. Nature of the test: CXCR4 ubiquitination assay in HEK293 cells stably expressing HA-CXCR4. Type of test: cell-based. The conditions noted are these: HEK293 HA-CXCR4 with FLAG-ubiquitin, 80 ng/ml, 30 min. The procedure:
(§1) CXCR4 ubiquitination assays. HEK293 cells stably expressing HA-CXCR4 grown on 10-cm dishes were transfected with 3 μg FLAG-ubiquitin. The next day, cells were passaged onto 6-cm dishes and allowed to grow for an additional 24 h. […] Cells were then washed once on ice with cold PBS, and collected in 1 ml lysis buffer [50 mM Tris-Cl, pH 7.4, 150 mM NaCl, 5 mM EDTA, 0.5% (w/v) sodium deoxycholate, 1% (v/v) NP-40, 0.1% (w/v) SDS, 20 mM N-ethyCXCL121aleimide (NEM), and 10 μg/ml each of leupeptin, aprotinin, and pepstatin A]. Samples were transferred into microcentrifuge tubes and placed at 4° C. for 30 min, followed by sonification and centrifugation to pellet cellular debris. Clarified cell lysates were incubated with an anti-HA polyclonal and isotype control antibodies and the immunoprecipitates were analyzed by SDS-PAGE followed by immunoblotting using an anti-FLAG antibody conjugated to HRP.
as §1, with “Tris-CI,” for “Tris-Cl,”

Test [3] has as its target T1, CXCR4. The test is described as follows: Confocal microscopy of CXCR4 Ser324/Ser325 phosphorylation in HeLa cells. Type of test: cell-based. The conditions noted are these: HeLa cells with HA-CXCR4-YFP, 80 ng/ml, 15 min. The procedure: Connfocal microscopy. HeLa cells transiently transfected with HA-CXCR4-YFP were passaged onto poly-L-lysine coated coverslips and grown for 24 h. The next day, cells were washed once with warm DMEM containing 20 mM HEPES, pH 7.5, and incubated in the same medium for 3-4 h at 37° C. […] Cells were then fixed with PBS containing 3.7% paraformaldehyde, followed by permeabilization with 0.05% (w/v) saponin for 10 min, similar to a protocol we have described previously. Cells were then incubated with 1% goat serum in 0.05% saponin-PBS for 30 min at 37° C., followed by staining with […] monoclonal antibody that recognizes dually phosphorylated CXCR4 on serine residues 324 and 325 (clone 5E11) (1:50 dilution) for 1 h at 37° C. […] Samples were analyzed using an LSM 510 laser scanning confocal microscope (Carl Zeiss, Thornwood, N.Y.) equipped with a Plan-Apo 63×/1.4 oil lens objective. […] Acquired images were analyzed using ImageJ, version 1.41o software (National Institutes of Health, Bethesda, Md.) and Adobe Photoshop (CS4).
Confocal microscopy. […] Samples were analyzed using an LSM 510 laser scanning confocal microscope (Carl Zeiss, Thornwood, N.Y.) equipped with a Plan-Apo 63×/1.4 oil lens objective. […] Acquired images were analyzed using ImageJ, version 1.410 software (National Institutes of Health, Bethesda, Md.) and Adobe Photoshop (CS4).

Another test relates to KG1a cells. The test is described as follows: Apoptosis assays in KG1a cells expressing CXCR4-YFP. Type of test: cell-based, human. The conditions noted are these: for cleavage of PARP: 100 ng/ml. The procedure: Apoptosis assays. KG1a (human acute myelogenous leukemia) cells were assayed for CXCL12-dependent apoptosis as previously described. Briefly, CXCR4 expression on KG1a cells was achieved via transient transfection with a plasmid encoding a CXCR4-YFP fluorescent fusion protein. […] Apoptosis was assayed by staining cells with APC-conjugated annexin V to detect cell-surface phosphatidyl serine (BD Biosciences) or Alexaflour-647-conjugated antibody to detect cleaved PARP (BD Biosciences), and the percentage of YFP+ cells undergoing apoptosis was determined by flow cytometry.

T1 sequence (P61073 whole entry): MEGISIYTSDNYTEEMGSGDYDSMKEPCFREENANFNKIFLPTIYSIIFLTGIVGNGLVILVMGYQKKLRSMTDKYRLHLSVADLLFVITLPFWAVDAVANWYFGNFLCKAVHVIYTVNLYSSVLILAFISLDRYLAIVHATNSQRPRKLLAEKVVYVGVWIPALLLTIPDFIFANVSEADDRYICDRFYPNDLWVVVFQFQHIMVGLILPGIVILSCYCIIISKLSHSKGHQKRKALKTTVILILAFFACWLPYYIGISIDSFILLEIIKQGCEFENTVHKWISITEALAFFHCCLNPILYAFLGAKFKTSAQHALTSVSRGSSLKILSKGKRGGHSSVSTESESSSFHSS

The EC50 is the concentration at which the effect is half-maximal. On to “CXCL12WT: wild type CXCL12 (stromal cell-derived factor-1/SDF-1), SEQ ID NO:1”, for which the CXCR4 degradation result with CXCR4 [1] was “approximately 60%”. For the same substance, the CXCR4 ubiquitination entry is on record as “prompted ubiquitin” with CXCR4 [2] and “promoted ubiquitination of CXCR4” with CXCR4 [2] (listed as CXCL12). Moreover, the “staining for CXCR4 phosphorylated on Ser324 and Ser325” value in the test with CXCR4 [3] was “strong staining”. Further, the “cleavage of PARP” value in the test on KG1a cells is given as “significantly greater than CXCL122”. For the same substance, the concentration for a half-maximal effect (EC50) with KG1a cells (16-18 h, read-out: EC50 of increase in annexin V) was determined as 1.75 ± 0.6 nM.

In the case of “CXCL122: constitutively dimeric variant of CXCL12 containing L36C/A65C mutations”, the CXCR4 degradation in the test with CXCR4 [1] is given as ~15%. Also, the CXCR4 ubiquitination result with CXCR4 [2] is recorded as “failed to promote CXCR4 ubiquitination”. Moreover, the “staining for CXCR4 phosphorylated on Ser324 and Ser325” value in the test with CXCR4 [3] is on record as “weak staining similar to vehicle”. In addition, the “cleavage of PARP” value in the test with KG1a cells was “enhanced the cleavage of PARP”. Further, the “increase in annexin V” value in the test on KG1a cells (16-18 h) is “small but significant increase”.
